This passage reports inhibition of the cleavage of AMC substrates by human recombinant caspases (cross-reaction) results from patent US20090042805A1.

In this assay the target is other caspases. The assay can be described thus: cell-based or functional assay.

Consider Ac-VDVAD-aldehyde [Ac-VDVAD-cho], for which the inhibition of the cleavage of AMC substrates by human recombinant caspases (cross-reaction) was below 20%.
